Test results published in the DeepSol protein solubility set.

Assay: soluble on expression in E. coli; label from the status in PepcDB or PDB records

Sequence | soluble on expression in E. coli
MSLDCKIDIIPRVLHFKQPAGTSRGTYTTRKVWYLHFTAPEFPNWVGIGECAPLPNLSCDDLPDYEEVLAKICRQVENQGGKLDMEALCKYPSILFGLETAIRHFFEGSWALWDTPFSRGEAGIPINGLIWMGDFNRMLAQIEKKMEAGFRCIKLKIGAINFEEELALLQHIRSHYSSKEIELRVDANGAFSPTDAMEKLKRLSELDLHSIEQPIRAGQWEEMARLTSESPLPIALDEELIGYNTWEEKQRLLSAIRPQYIIIKPSLHGGLAGGEEWIAEAEKLNIGWWITSALESNIGLNAIAQWCATFQNPLPQGLGTGLLFTDNVEMPLEIRKDCLWFCKEGHHHHHH | soluble
MQTFQADLAIVGAGGAGLRAAIAAAQANPNAKIALISKVYPMRSHTVAAEGGSAAVAQDHDSFEYHFHDTVAGGDWLCEQDVVDYFVHHCPTEMTQLELWGCPWSRRPDGSVNVRRFGGMKIERTWFAADKTGFHMLHTLFQTSLQFPQIQRFDEHFVLDILVDDGHVRGLVAMNMMEGTLVQIRANAVVMATGGAGRVYRYNTNGGIVTGDGMGMALSHGVPLRDMEFVQYHPAGLPGSGILMTEGCRGEGGILVNKNGYRYLQDYGMGPETPLGEPKNKYMELGPRDKVSQAFWHEWRKGNTISTPRGDVVYLDLRHLGEKKLHERLPFICELAKAYVGVDPVKEPIPVRPTAHYTMGGIETDQNCETRIKGLFAVGECSSVGLHGANRLGSNSLAELVVFGRLAGEQATERAATAGNGNEAAIEAQAAGVEQRLKDLVNQDGGENWAKIRDEMGLAMEEGCGIYRTPELMQKTIDKLAELQERFKRVRITDTSSVFNTDLLYTIELGHGLNVAECMAHSAMARKESRGAHQRLDEGCTERDDVNFLKHTLAFRDADGTTRLEYSDVKITTLPPAKRVYGGEADAADKAEAANKKEKANG | soluble
MEDENILRNAVNLQVLKFHYPEIESIIDIASHVAVYQFDVGSQKWLKTSIEGTFFLVKDQRARVGYVILNRNSPENLYLFINHPSNVHLVDRYLIHRTENQHVVGLWMFDPNDMSRIFNIVKESLLR | soluble
MSLTGNAQAATIADPSTLVVDTVGPVLTIGLNRPKKRNALNDGLMAALKDCLTDIPDQIRAVVIHGIGDHFSAGLDLSELRERDATEGLVHSQTWHRVFDKIQYCRVPVIAALKGAVIGGGLELACAAHIRVAEASAYYALPEGSRGIFVGGGGSVRLPRLIGVARMADMMLTGRVYSAAEGVVHGFSQYLIENGSAYDKALELGNRVAQNAPLTNFAVLQALPMIAEANPQTGLLMESLMATVAQSDQEAKTRIRAFLDHKTAKVREGHHHHHH | soluble
MGDQPFIPPPQQTALTVNDHDEVTVWNAAPCPMLPRDQVYVRVEAVAINPSDTKMRGQFATPWAFLGTDYAGTVVAVGSDVTHIQVGDRVYGAQNEMCPRTPDQGAFSQYTVTRGRVWAKIPKGLSFEQAAALPAGISTAGLAMKLLGLPLPSPSADQPPTHSKPVYVLVYGGSTATATVTMQMLRLSGYIPIATCSPHNFDLAKSRGAEEVFDYRAPNLAQTIRTYTKNNLRYALDCITNVESTTFCFAAIGRAGGHYVSLNPFPEHAATRKMVTTDWTLGPTIFGEGSTWPAPYGRPGSEEERQFGEDLWRIAGQLVEDGRLVHHPLRVVQGGFDHIKQGMELVRKGELSGEKLVVRLEGPLEHHHHHH | soluble
MGSDKIHHHHHHMSKFHELTVASVTRETRDAVAVTFAVPEDLADTYRYVQGQHLTLRAGIGGEDVRRSYSICSAVQDRRLRVAIKRVDGGMFSNWANDALQPGMTLEVMPPSGHFHVPLSDTHSKHYVAFAAGSGITPMLSIIKTTLMTEPDSRFTLFYGNRASSSVLFKEELEDLKDTYLERFNLVFILSREQLDIDLFNGRIDGEKVRALLRHWVRPQDIDVAFICGPHSMMEEVSQALQENGVDKARIKRELFATSIPAARPAAHAHKQLGQQQCEVTVIQDGRTRQFTLEKNKETILDAALAQGIELPYSCKGGVCSTCRCKRIEGEVDMDVNFALEDYEVARGFILSCQSYAVTDKLVIDFDQET | not soluble
MPYRRRQSTAPKSGAPKSVRSAAAGQSLDIDGIHLHLTRKPIKNLYLRIKPPSGRVEISAPMRMSESRIADFVKERHSWILAQQQRMAEAQRRSIMALNEGAGFENGGRGVAGASGHDGGVAGRPKTGDISRPGIGDAGPGQAGTNVQPYFDRSQIWTDERKRQAAAAINAALPQLLAKWGPVVGRQPTHITLRVMTSRWGSCTPRTGRIRLNLQLGLMEPQFLEYVLVHEMTHLWESGHGAGFQRRMTAYLPGWKTLRRDLNRRVVLLEHHHHHH | soluble
MAHHHHHHMKSTQSNLNDEEKVMNNNEKIIKNSYGELLSGCIKNKSSDMNTGDVYPCNDKNTKIVSIKNVYNNLYKTSDSLFFNEENEENRMENCIIRNDGRDMENKFSLYINNAENKDDNNMNNNKNDNINDNINDNINDNINDNINDNINDNINDNINNNINDNINNNIYHNQNNNIYHNIYHNNIINDGVIINEHTSHGDRSSFLNNNKNYNISNYTNHGHNINLNEEKNEKVYMHRNENNEKIHYSNNKDYIEKGNEKSVSSKKGEETYTNNSYNIHLKNMDVKNNERDMCKTMVNNSNIKENKKYSNKTIQQEENTEHEYNIINEEEEEHIKLFKNMNLEEIKNVLSKNDASTLKILLCTDNHLGYKENNSIQKKDSFNSFEEILFIAKKLNVDMILNSGDLFHKNKVSEYTLFKSMYIIRKYCHINENDKEMQQDDNINNNIYPNDLNNDDKSVSKAISEDEFCNMYNVQVKEIKNYKYEYYKNEHTLNNRNNIFDDTNDCMSNKSFIQDKNENLYKDDEDNTNGVKLLQRNDEMNNSDHPGEYLNYRNGKKQIKYYNKLKENNNEFFNKLKICSVNQKFKKLIPFYTIHGNHDYPYSYEYISPLDILNISNLINYIGKNNLNNIVVKPILLNKYKSKISIYAVGWMKDERLYRSFENNEVKFILPSDYKNRINILVLHQNRYIRNAYGNNTKNFIKESFIPKFIDLVIWGHEHFSKPYLEESILNSFYNIQLGSSVRTSICPNEYGDKFIGLLEIKNQRFRFLKINLETVRPFEMKDIKLADYELNFKSESVLKEFLHEQTHAILEKIKNNFSHEIKKYFFFKQLFHTKNKLETNTNKKHQTEYNNINICTKEINSHLNDYQDENLYKSLISISKEDINNFYNNLKNEDFYSSTFIHFAFADPYDTFDLLKIKKEVYEKPLLKIKVEYDDVNIINTQLFGSLFINSIANPSEFLSFYRKKIRQRDIYNNNDNNNDNINDNNNNNDHGKNNTNHDTYNNNYNNNRIDEDEGDKDLHNMEYINEYNKVFDILFDYCDIKNKLLILDENVIMDTIQNFILNTNSSFNFNTNVTSDFTSINSMVDKSFKNKVESIEKQMGNMSAENITDAYLTDVLKKIKNTS | not soluble
MGSDKIHHHHHHMSLFAALRLPREILFGKGQRHALSTVAGRFGRHALVCTDERFAGTAVFAEIVQSLQAASIEVLVHDRVLPDVPRDSVGICVDEAEKFQPEMVIGIGGGSCLDFAKCADLLLSHGGKLQDYYGEFKVPGPTLPLIAVPTTAGTGSEVTPVAVISDPDRTLKVGISSPYLIAAVALCDPELTMTCPPALTAIAGADALTHAIEAFTAKQRGEDPSLAQQHVFIGKTALTDHFALLAIKLLGRSLEKACTDGTDADARADVMMGALAAGCAFGTAGTAAAHAVQYPAGALTHTAHGLGVATMMPYVMTYNSRVVAAEMAEIGDALGLEAKGRSAEEMADATIKEIRRLFTAIGITPTLADLGLPADKLDWTADQALGIDRLIKNNPRPFDLTAMRRLVQAAHDGDLAACAM | not soluble
SAAGVPCALVTSCSSVFSGDQLVQHILGTEDLIVEVTSNDAVRFYPWTIDNKYYSADINLCVVPNKFLVTAEIAESVQAFVVYFDSTQKSGLDSVSSWLPLAKAWLPEVMILVCDRVSEDGINRQKAQEWCIKHGFELVELSPEELPEEDDDFPESTGVKRIVQALNANVWSNVVMKNDRNQGFSLLNSLTGTNHSIGSADPCHPEQPHLPAADSTESLSDHRGGASNTTDAQVDSIVDPMLDLDIQELASLTTGGGDVENFERLFSKLKEMKDKAATLPHEQRKVHAEKVAKAFWMAIGGDRDEIEGLSSDEEH | soluble
MNERDIICAGCGVKIQTESKEMLGYTPPSALKRDVIICQRCFRMQHYNEVQDVSLTDDDFLKILHTIGERKALIVKLVDIFDFNGSWLPGLHRFVGGNDVLLIGNKVDLLPKSVNRNRMINWMRKSAKDLGLKPIDVALISGEKGIGVKEVASLIDRLRKGKDVYVVGATNVGKSTFINKMIQIFGGDEEQMITTSHFPGTTLDMIDIPLDDGKTLYDTPGIINHHQMAHYVAKNELKLITPKKEIKPKVFQLNEEQTLFFGGLARFDFVKGERTSFVCYVSNDLFIHRTKLEKADELYEKRLGDVLTPPEDPQHLPSLVKHEFTIRVQKVDVVISGLGWVTVNGTNVKVCAYAPEGVGVSIRESLILEHHHHHH | soluble
